Results: paper PMC10917784
“And” between values parts separate entries of the source, which are not always exact repeats. Equal entries are not always repeated.

Legend:
[1] = target: Trastuzumab; assay: SPR; antibody constructs immobilised on a Protein L Series S CM5 chip, increasing concentrations of Fc receptor flushed; Biacore 8K+, 25 °C, neutral pH; 1:1 binding model
[2] = target: ISB 1442 with a wild-type Fc (without Fc enhancing mutations) (human); assay: SPR; antibody constructs captured on a Protein L Series S CM5 chip, FcRn flowed over; Biacore 8K+, 25 °C, pH 6.0; steady state affinity model; three replicates
[3] = target: trastuzumab; assay: as above
[4] = target: ISB 1442, CD38 and CD47 bispecific biparatopic antibody (enhanced Fc) (human); assay: as above
[5] = target: ISB 1442 WT Fc (human); assay: SPR; antibody constructs immobilised on a Protein L Series S CM5 chip, increasing concentrations of Fc receptor flushed; Biacore 8K+, 25 °C, neutral pH; 1:1 binding model
[6] = target: ISB 1442 (human); assay: as above
[7] = target: SIRPα (Homo sapiens) (UniProt P78324); conditions: cited from earlier work
[8] = target: ISB 1442 (human); assay: SPR; antibody constructs immobilised on a Protein L Series S CM5 chip, increasing concentrations of FcRn flushed; Biacore 8K+, 25 °C, pH 6.0; steady state affinity model
[9] = target: ISB 1442 silenced Fc (human); assay: as above
[10] = target: trastuzumab; assay: SPR; antibody constructs captured on a Protein L Series S CM5 chip, Fc receptors flowed over; Biacore 8K+, 25 °C, neutral pH; 1:1 binding model (FcγRI and FcγRIIIa); three replicates
[11] = target: ISB 1442, CD38 and CD47 bispecific biparatopic antibody (enhanced Fc) (human); assay: as above

Sequence of his-tagged human FcRn ECD & β2 microglobulin (P55899 24-297): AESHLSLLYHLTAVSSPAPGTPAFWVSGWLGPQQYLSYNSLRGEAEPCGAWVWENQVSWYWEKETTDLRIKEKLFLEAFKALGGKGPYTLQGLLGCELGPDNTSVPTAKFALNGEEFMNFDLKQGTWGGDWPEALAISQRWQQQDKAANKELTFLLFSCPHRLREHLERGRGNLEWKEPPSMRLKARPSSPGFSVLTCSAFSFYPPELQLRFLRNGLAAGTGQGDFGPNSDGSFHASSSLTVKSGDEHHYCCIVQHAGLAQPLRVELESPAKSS
Sequence of his-tagged human FcRn ECD & β2 microglobulin (P61769 21-119): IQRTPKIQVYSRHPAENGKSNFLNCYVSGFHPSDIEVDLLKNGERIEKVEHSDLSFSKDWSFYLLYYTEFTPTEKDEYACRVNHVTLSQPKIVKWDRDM
Sequence of his-tagged human FcγRIIIa ECD (P08637 17-208): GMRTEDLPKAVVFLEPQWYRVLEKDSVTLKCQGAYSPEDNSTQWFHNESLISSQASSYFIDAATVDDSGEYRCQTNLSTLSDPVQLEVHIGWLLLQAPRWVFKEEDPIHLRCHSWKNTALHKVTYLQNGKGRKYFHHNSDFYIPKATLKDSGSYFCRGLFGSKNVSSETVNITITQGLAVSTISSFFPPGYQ
Sequence of human FcRn ECD & β2 microglobulin (P55899 24-297): as the sequence (P55899 24-297) above
Sequence of human FcRn ECD & β2 microglobulin (P61769 21-119): as the sequence (P61769 21-119) above
Sequence of human FcγRIIIa ECD (P08637 17-208): as the sequence (P08637 17-208) above
Sequence of human FcγRI extracellular domain (ECD) (P12314 16-292): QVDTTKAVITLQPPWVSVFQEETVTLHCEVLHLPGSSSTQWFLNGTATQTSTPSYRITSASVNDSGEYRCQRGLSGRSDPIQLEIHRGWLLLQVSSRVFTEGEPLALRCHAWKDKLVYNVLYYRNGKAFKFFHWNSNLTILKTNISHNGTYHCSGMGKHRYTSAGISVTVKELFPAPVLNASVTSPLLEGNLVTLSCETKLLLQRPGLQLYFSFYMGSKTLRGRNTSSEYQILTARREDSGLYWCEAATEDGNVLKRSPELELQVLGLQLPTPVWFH

“human FcγRI extracellular domain (ECD) (from UniProt P12314 16-292) (receptor)” showed a Kd [1] of 0.21 nM.

For “his-tagged human FcRn ECD & β2 microglobulin (from UniProt P55899 24-297; P61769 21-119) (complex)”, the Kd [2] was 236 nM, the Kd [3] was 253 nM and 217 nM and 203 nM and the Kd [4] was 129 nM and 189 nM. The Kd ([4]; mean) was 181 nM.

“human FcγRIIIa ECD (from UniProt P08637 17-208) (receptor)” showed a Kd [5] of 57 nM and a Kd [6] of 13 nM.

In the case of CD47 (from UniProt Q08722), the Kd [7] is given as 1000 nM.

In the case of “human FcRn ECD & β2 microglobulin (from UniProt P55899 24-297; P61769 21-119) (complex)”, the Kd [8] is reported as 181 nM and the Kd [9] is reported as 221 nM.

In the case of “his-tagged human FcγRIIIa ECD (from UniProt P08637 17-208) (receptor)”, the Kd [10] is reported as 134 nM, the Kd [11] is reported as 13.2 nM and 12.6 nM and 13.8 nM and the Kd ([11]; mean) is reported as 13.2 nM.
